The text below walks through data of patent US20260132197A1.

The target in test [1] is human CD47 on cells (SHP-77 tumor cells, human red blood cells, CCRF-CEM cells, human CD47 CHO-K1 stable cell line) (human) (UniProt Q08722). In words: flow cytometry on human CD47 CHO-K1 cells; plateau not reached, not accurate.
Test [2] shares this target. In words: flow cytometry on human RBCs.
Test [3] shares this target. Briefly: flow cytometry on SHP-77 cells.
Test [4] shares this target. In words: cell-based or functional assay.
Test [5] addresses cynomolgus CD47 on CHO-K1 stable cell line (cynomolgus). In words: flow cytometry on cynomolgus CD47 CHO-K1 cells; plateau not reached, not accurate.

Regarding TTI-622 fusion protein (Fc fusion), the EC50 in test [1] was found to be 10.4 nM; in test [2], 9.7 nM; in test [3], 4.9 nM; in test [5], 9.3 nM. The results for the Fitted maximal MFI in test [2] and in test [3] were 644 MFI and 10500 MFI, respectively. Also, in test [4], the CCRF-CEM phagocytosis EC50 was found to be 0.4 nM. In test [4], the CCRF-CEM phagocytosis, Phagocytosis (%) came to 36.6%.
